Experimental data reported in patent publication US20090285813A1 (MMRGLOBAL, published 2009).
Blank lines part the entries; values can stand above or below the binder they belong to.

Columns and labels:
human CD20 [1] = biological target: T1, human CD20 (human, UniProt P11836 1-297); test: anti-CD20 cellular ELISA, supernatant; rank 4 of 29
T1 construct: whole, on cells; Target always presented on cells; also called CD20 antigen
T1 sequence (looked up): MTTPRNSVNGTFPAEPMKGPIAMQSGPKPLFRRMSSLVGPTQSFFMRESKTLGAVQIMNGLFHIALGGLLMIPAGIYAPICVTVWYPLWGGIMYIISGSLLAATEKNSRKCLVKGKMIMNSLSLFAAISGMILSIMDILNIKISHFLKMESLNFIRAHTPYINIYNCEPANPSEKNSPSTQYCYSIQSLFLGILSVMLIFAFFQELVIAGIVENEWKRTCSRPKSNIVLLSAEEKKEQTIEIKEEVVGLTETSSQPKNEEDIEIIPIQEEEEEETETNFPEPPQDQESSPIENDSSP

human CD20 [2] = biological target: T1, human CD20; test: anti-CD20 cellular ELISA, supernatant; rank 8 of 29
human CD20 [3] = biological target: T1, human CD20; test: anti-CD20 cellular ELISA, supernatant; rank 1 of 29
human CD20 [4] = biological target: T1, human CD20; test: anti-CD20 cellular ELISA, supernatant; rank 3 of 29
human CD20 [5] = biological target: T1, human CD20; test: anti-CD20 cellular ELISA, supernatant; rank 7 of 29
human CD20 [6] = biological target: T1, human CD20; test: anti-CD20 cellular ELISA, supernatant; rank 2 of 29
human CD20 [7] = biological target: T1, human CD20; test: anti-CD20 cellular ELISA, supernatant; rank 5 of 29
human CD20 [8] = biological target: T1, human CD20; test: anti-CD20 cellular ELISA, supernatant; rank 6 of 29

B2: anti-CD20 HuFR variant 8 (light chain BD22095, heavy chain BD20337) (antibody, human IgG1, kappa)
heavy: not shown
light: EIVMTQSPATLSVSPGERATLSCRASSSLSFMHWYQQKPGQPPKLLIYATSNLASGVPSRFSGSGSGTDFTFTISSLQPEDIATYYCHQWSSNPLTFGQGTKVEIKRTVAAPSVFIFPPSDEQLKSGTASVVCLLNNFYPREAKVQWKVDNALQSGNSQESVTEQDSKDSTYSLSSTLTLSKADYEKHKVYACEVTHQGLSSPVTKSFNRGEC
notes: Full-length IgG, unpurified HEK-293 supernatant; also called LC & HC combination 8
binding result (human CD20 [2]): binds

B5: anti-CD20 HuFR variant 7 (light chain BD22090, heavy chain BD20337) (antibody, human IgG1, kappa, V domains shown)
VH: QVQLVQSGAEVKKPGASVKVSCKASGYTFTSYNMHWVRQAPGQGLEWMGAIYPGNGDTSYNQKFKGRVTISADKSISTAYLQWSSLKASDTAMYYCARSHYGSNYVDYFDYWGQGTLVTVSS
VL: DIVMTQSPLSLPVTPGEPASISCRASSSLSFMHWYLQKPGQSPQLLIYATSNLASGVPDRFSGSGSGTDFTLKISRVEAEDVGVYYCHQWSSNPLTFGQGTKVEIKR
notes: Full-length IgG, unpurified HEK-293 supernatant; also called LC & HC combination 7
binding result (human CD20 [5]): binds

B7: anti-CD20 HuFR variant 5 (light chain BD22087, heavy chain BD20335) (antibody, human IgG1, kappa, V domains shown)
VH: QVQLVQSGAEVKKPGASVKVSCKASGYTFTSYNMHWVRQAPGKGLEWMGAIYPGNGDTSYNQKFKGRFTISRDNAKNSLYLQMNSLRAEDTAVYYCARSHYGSNYVDYFDYWGQGTLVTVSS
VL: EIVLTQSPGTLSLSPGERATLSCRASSSLSFMHWYQQKPGKAPKLLIYATSNLASGVPSRFSGSGSGTEFTLTISSLQPDDFATYYCHQWSSNPLTFGQGTKVEIKR
notes: Full-length IgG, unpurified HEK-293 supernatant; also called LC & HC combination 5
binding result (human CD20 [7]): binds

B8: anti-CD20 HuFR variant 6 (light chain BD22089, heavy chain BD20335) (antibody, human IgG1, kappa, V domains shown)
VH: QVQLVQSGAEVKKPGASVKVSCKASGYTFTSYNMHWVRQAPGKGLEWMGAIYPGNGDTSYNQKFKGRFTISRDNAKNSLYLQMNSLRAEDTAVYYCARSHYGSNYVDYFDYWGQGTLVTVSS
VL: EIVLTQSPATLSLSPGERATLSCRASSSLSFMHWYQQKPGQPPKLLIYATSNLASGVPSRFSGSGSGTDFTFTISSLQPEDIATYYCHQWSSNPLTFGQGTKVEIKR
notes: Full-length IgG, unpurified HEK-293 supernatant; also called LC & HC combination 6
binding result (human CD20 [8]): binds

Now from value to binder:

binding result (human CD20 [1]): binds
B1: anti-CD20 HuFR variant 4 (light chain BD22088, heavy chain BD20337) (antibody, human IgG1, kappa)
heavy: not shown
light: DIVMTQSPLSLPVTPGEPASISCRASSSLSFMHWYQQKPGQPPKLLIYATSNLASGVPSRFSGSGSGTDFTFTISSLQPEDIATYYCHQWSSNPLTFGQGTKVEIKRTVAAPSVFIFPPSDEQLKSGTASVVCLLNNFYPREAKVQWKVDNALQSGNSQESVTEQDSKDSTYSLSSTLTLSKADYEKHKVYACEVTHQGLSSPVTKSFNRGEC
notes: Full-length IgG, unpurified HEK-293 supernatant; also called LC & HC combination 4

binding result (human CD20 [3]): binds
B3: anti-CD20 HuFR variant 1 (light chain BD22084, heavy chain BD20332) (antibody, human IgG1, kappa, V domains shown)
VH: QVQLVQSGAEVKKPGASVKVSCKASGYTFTSYNMHWVRQAPGKGLEWVGAIYPGNGDTSYNQKFKGRVTISADKSISTAYLQWSSLKASDTAMYYCARSHYGSNYVDYFDYWGQGTLVTVSS
VL: DIVMTQSPLSLPVTPGEPASISCRASSSLSFMHWYQQKPGQPPKLLIYATSNLASGIPARFSGSGSGTDFTLTISSLEPEDFAVYYCHQWSSNPLTFGQGTKVEIKR
notes: Full-length IgG, unpurified HEK-293 supernatant; also called LC & HC combination 1

binding result (human CD20 [4]): binds
B4: anti-CD20 HuFR variant 3 (light chain BD22086, heavy chain BD20335) (antibody, human IgG1, kappa, V domains shown)
VH: QVQLVQSGAEVKKPGASVKVSCKASGYTFTSYNMHWVRQAPGKGLEWMGAIYPGNGDTSYNQKFKGRFTISRDNAKNSLYLQMNSLRAEDTAVYYCARSHYGSNYVDYFDYWGQGTLVTVSS
VL: DIVMTQSPLSLPVTPGEPASISCRASSSLSFMHWYQQKPGQAPRLLIYATSNLASGVPDRFSGSGSGTDFTLTISSLQAEDVAVYYCHQWSSNPLTFGQGTKVEIKR
notes: Full-length IgG, unpurified HEK-293 supernatant; also called LC & HC combination 3

binding result (human CD20 [6]): binds
B6: anti-CD20 HuFR variant 2 (light chain BD22085, heavy chain BD20335) (antibody, human IgG1, kappa, V domains shown)
VH: QVQLVQSGAEVKKPGASVKVSCKASGYTFTSYNMHWVRQAPGKGLEWMGAIYPGNGDTSYNQKFKGRFTISRDNAKNSLYLQMNSLRAEDTAVYYCARSHYGSNYVDYFDYWGQGTLVTVSS
VL: DIVMTQSPDSLAVSLGERATINCRASSSLSFMHWYQQKPGQAPRLLIYATSNLASGVPSRFSGSGSGTDFTLTISSLQPEDFATYYCHQWSSNPLTFGQGTKVEIKR
notes: Full-length IgG, unpurified HEK-293 supernatant; also called LC & HC combination 2
